How the values were obtained:
MS2 coat protein [1] = assay: apparent KD of MS2 coat protein, switch ON state; designed switch direction (-1 OFF switch, 1 ON switch): -1; higher = weaker reporter binding; conditions: FMN input: 0 or 200 uM; Eterna round: R93 (includes R88 designs)
In short: (§1)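 Titration buffer: 100 mM Tris-HCl pH 7.5, 80 mM KCl, 4 mM MgCl2, without or with constant ligand. Designed RNA switches transcribed on-chip from Illumina sequencing clusters received SNAP-549-labelled MS2 coat protein in twofold steps from 0.7 or 1.5 nM to 3 µM. Apparent KD is the median per design of fits to normalised cluster binding curves.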

MS2 coat protein [2] = assay: apparent KD of MS2 coat protein, switch OFF state (with FMN for OFF switches, without FMN for ON switches); designed switch direction (-1 OFF switch, 1 ON switch): -1; higher = weaker reporter binding; conditions: FMN input: 0 or 200 uM; Eterna round: R93 (includes R88 designs)
In short: as §1

Row | Sequence | apparent KD of MS2 coat protein (MS2 coat protein [1]) [nM] | apparent KD of MS2 coat protein (MS2 coat protein [2]) [nM]
1 | AAAAAGUGAGGAUAUUCGGAUAGGAAAACGAAAACCUAUCCGAAGAAGGCACAUGAGGAUCACCCAUGUGAAAA [67% Ecls-II - Early G + late G segment 1] | 27.5 | 24.1
2 | AAAAAGUGAGGAUAUUCGGAUAGGAAAACGAAAACCUAUCCGAAGAAGGCACAUGAGGAUCACCCAUGUGGAAG [Mat - Exaclusion 4 - Eli mod - D47] | 37.2 | 48.3
3 | AAAAAGUUAGGAUAUACAUGAGGAUCACCCAUGUGCACAUAUGGAGAAUAUGGUGGUAGUAGAAGGGACAAAAA [EX2 Malc#17] | 33.9 | 69.7
4 | AAAAAUGGAGGAUAUACAUGAGGAUCACCCAUGUGUGGGUAUACUGUGUCGGCGUCAGGUAGAAGGCCAAAAAA [Gilly Gone Silly 28 - Jieux - Exclusion 3] | 132 | 121
5 | AAAACGCUAGGAUAUACGAAAAAAAAGGGAGAAAAAAAGGGACAUGAGGAUCACCCAUGUAGAAGGAGCAAAAA [Diamond 88] | 38.5 | 105
6 | AAAACGUGAGGAUAUGCACCAAAAAAGGUAUUUCGGGUACGACAUGAGGAUCACCCAUGUAGAAGGCACGAAAA [Frodo Flailing 13 - Jieux - Exclusion 2] | 22.8 | 19.8
7 | AAAACUCGAGGAUAUACGAACAUGUCAAAAGACGUGAAGGGACAUGAGGAUCACCCAUGUAGAAGGCGAGAAAA [Mat - Exclusion 2 - JL-Eli mod - D45] | 55.4 | 123
8 | AAAACUGGAGGAUAUACAUGAGGAUCACCCAUGUGUGGGUAGACUGUGUCGGCGUCAGGUAGAAGGCCACAAAA [Gilly Gone Silly 31 - Jieux - Exclusion 3] | 185 | 167
9 | AAAACUGGAGGAUAUACGUACAUGUCAAAAGACGUGAAGGGACAUGAGGAUCACCCAUGUAGAAGGCUAGAAAA [JL Stem Breaker 8] | 74.2 | 28.6
10 | AAAAGCUCAGGAUAUACGGUCUGUUGUUGAGAAAUAUCGAAACAUGAGGAUCACCCAUGUAGAAGGGAGCGAAA [Exclusion2-cac2] | 108 | 269
11 | AAAAGGGCAGGAUAUGCGUACUCACGGGAAAGCUGGAUGGUACAUGAGGAUCACCCAUGUAGAAGGGCUAAAAA [Dora Explored 18 - Jieux - Exclusion 2] | 32.8 | 21.4
12 | AAAAGGUGAGGAUAUUCGAAAAUAAAAGAAAAUAAAAGAAAGAAGAAGGCACAUGAGGAUCACCCAUGUAAUAA [LROPPY Exclusion 4 - v02_deltaG=2.94 break up the As mixed] | 30.1 | 27
13 | AAAAGUAGAGGAUAUACAUGAGGAUCACCCAUGUAGAAAGGAAGUGUAUAUAUGGCGUGUAGAAGGCUGCAUGA [Power strip] | 29.3 | 32.3
14 | AAAAGUGGAGGAUAUACAUGAGGAUCACCCAUGUGUAAAAAUAAAUACACAAAAGAAAGUAGAAGGCCACAAAA [Ex 3 May 10] | 25.8 | 122
15 | AAAAUACAUGAGGAUCACCCAUGUGAGGAUAUGCGAAUAAAAAUAAAAUAAAAUAAAAGCAGAAGGCACGAAAA [EX 1 May 24] | 33.4 | 32.8
16 | AAAAUGUGAGGAUAUGUACGAAAAAAUAAAAAAAUAAAAGUACAGAAGGCACAUGAGGAUCACCCAUGUGGGAA [EX4 399: Minimal 12] | 158 | 94
17 | AAACAACAUGAGGAUCACCCAUGUCAGGAUAUGAACGAAAAUAAAUAAAAAUAAAAGUUCAGAAGGGACGAAAA [66%, Wbt, 16] | 31.6 | 49.7
18 | AAACCACAUGAGGAUCACCCAUGUUAGGAUAUGCUAUGGAAAUAAAAAAUAAAACAUAGCAGAAGGGACAAAAA [Mat - Exclusion 1 - Eli mod - D35] | 19.7 | 19.3
19 | AAACGUAGAGGAUAUACAAAAAGAUUACGAAAGUAAUCGGGACAUGAGGAUCACCCAUGUAGAAGGCUACGAAA [Mod2 of Meechl 64% 2] | 36.7 | 94.5
20 | AAAGAUGGAGGAUAUACAUGAGGAUCACCCAUGUAAAAAAAAAAGAGGGAAAAAGAAAGUAGAAGGCCACAAAA [Ex 3 May 44] | 83.1 | 46.4

Row | Sequence | apparent KD of MS2 coat protein (MS2 coat protein [1]) [nM] | apparent KD of MS2 coat protein (MS2 coat protein [2]) [nM]
21 | AAAGCGGCAGGAUAUACAGGAACAAAAGUAUGUGCAUCCGCACAUGAGGAUCACCCAUGUAGAAGGGCUAAUAA [Ontiti] | 167 | 270
22 | AAAGGAUCAGGAUAUGUGUGGAAAAAGUGUAUCCAAAAAAAACAUGAGGAUCACCCAUGUAGAAGGGAUCCAAA [Mod 2 of Normal (20/19) by Nando, Round 1] | 177 | 441
23 | AAAGUGUGAGGAUAUGUCAAAGGUCACGAAAGUGACAAAGGGCAGAAGGUACAUGAGGAUCACCCAUGUAAAAA [Opal 1] | 24 | 19.9
24 | AAAUACCAAGGAUAUACAUGAGGAUCACCCAUGUACAAACCCGUGGAACGGAUCGUUGGUAGAAGGUGGAAAUA [Isleusso] | 13.4 | 12.2
25 | AAAUAGCAAGGAUAUACAUGAGGAUCACCCAUGUGACCCAGGUAUGGCAUAGAAUAGAGUAGAAGGUGCAAAUA [Mod 4 of Ex 3 Tesla 8 - Jieux - Exclusion 3] | 132 | 149
26 | AAAUAGUUAGGAUAUACAUGAGGAUCACCCAUGUGGACUUAUGGAGAAUAAUUUAAUGGUAGAAGGGACUAAAA [EX2 Malc#26] | 54.3 | 45.5
27 | AAAUUAGGAGGAUAUACAUGAGGAUCACCCAUGUGACGAUGUUACUGCAUGAAGUCAAGUAGAAGGUCUAAGAA [Cearar] | 31.7 | 44.2
28 | AAAUUGUCAGGAUAUCGUAUAAUAUGGAAAACAUAGAGAUACGAGAAGGGACAUGAGGAUCACCCAUGUAAAAC [May 96] | 36.1 | 31.1
29 | AACAAACAUGAGGAUCACCCAUGUCAGGAUAUGCAAACAACAAACAACAAACAACAAAGCAGAAGGGAUAGGAA [63%, Olong, 4] | 27.1 | 21.2
30 | AACAAGUCAGGAUAUUCGACAAGUAAAUAAGUAAAUCAAAAGAAGAAGGGACAUGAGGAUCACCCAUGUAAAUA [JR_Exc004_Sub401] | 32.5 | 21.3
31 | AACAGGUCAGGAUAUGUGGAAAAAAUAAAAAAAAAUAAAACACAGAAGGGACAUGAGGAUCACCCAUGUAAACA [Mat - Exclusion 4 - Mayanna - D143] | 49.3 | 56.8
32 | AACAGGUCAGGAUAUGUGGAAAAAAUAAAAAAAAUAAAAACACAGAAGGGACAUGAGGAUCACCCAUGUAAAAA [May 20] | 59.5 | 75.6
33 | AACAGUACAGGAUAUACAUGAGGAUCACCCAUGUGAGAGGAAUAAAACAAAAAUAAAAGUAGAAGGGUACUGGA [Ruby 45] | 35 | 106
34 | AACAGUACAGGAUAUACAUGAGGAUCACCCAUGUGAGCAUUAAAAGGCGUACCUAAAAGUAGAAGGGUACUGGA [JL Maslow Revisted mod 22] | 24.8 | 66.7
35 | AACAGUACAGGAUAUACAUGAGGAUCACCCAUGUGAGCAUUAAAAGGCGUACCUCAAAGUAGAAGGGUACUGGA [JL Maslow Revisted mod 23] | 107 | 18.9
36 | AACAGUACAGGAUAUACAUGAGGAUCACCCAUGUGGGAAAAAAGAUCGAGAGAUCAAUGUAGAAGGGUACUGGA [JL In the Red 03] | 161 | 427
37 | AACAUACAUGAGGAUCACCCAUGUCAGGAUAUGCCGGGUUAGAGCCAACUGAAAAAACGUAGAAGGGACGAAAA [Bilbo Confounded 7 - Jieux - Exclusion 1] | 110 | 90.3
38 | AACAUGUGAGGAUAUAAAAUGAAUAUAAAUUAUUAUCUUGAUUAGAAGGCACAUGAGGAUCACCCAUGUCUGAA [E4-1.2] | 23.8 | 25.2
39 | AACUAACAUGAGGAUCACCCAUGUCAGGAUAUGCAAAGAUCGAUCGAACGAUCGAUAAGCAGAAGGGACAAAAA [Amethyst 95] | 23.3 | 36.9

Reference: the supplement of paper PMC9170038
